Results reported in patent US20210403576A1 (HELIXMITH, published 2021).

Legend:
[1] = biological target: T1, human c-Met (Sino Biological) (human, UniProt P08581 25-932, limits assumed); assay: SPR (Biacore T200), IgG captured on Protein A CM5 chip, c-Met 0.15-2 nM as analyte
T1 construct: Analyte in the Biacore assay; also called antigen (c-Met); printed as "human c-Met antibody (Sino Biological, Beijing, China)"
Procedure: (§1) The candidate antibodies selected in Example 4 were measured for binding affinity for the antigen (c-Met) with the aid of Biacore. […] The anti-c-Met antibodies to be analyzed were immobilized on Protein A CM5 chips (GE Healthcare, Little Chalfont, UK) through which human c-Met antibody (Sino Biological, Beijing, China) with various concentrations ranging 0.15 to 2 nM was allowed to pass, thereby acquiring sensorgrams. On the basis of the acquired sensorgrams, association constants kₒₙ and dissociation constants koff were measured to calculate Ko value, the ratio koff/kₒₙ.

[2] = biological target: T1, human c-Met (Sino Biological); assay: derived from the Biacore KD, printed 'Average' 3.52 x10^-10 M divided by the KD
Procedure: as §1
(§2) In order to select a final candidate group from the 21 candidate antibodies selected in Example 4, comparison was made according to criteria specified into expression level, binding affinity for antigen, thermal stability, and biopotency. As a rule, the expression level is considered to be the most important index when time and cost are taken into consideration from a point of view of production. […] Thereafter, degrees of improvement in each of the remaining candidate antibodies compared to the reference antibody (VH0/Vk0) were digitized with regard to the selected indices. For normalization, analysis index measurements for individual candidate antibodies were divided by average values to give ratios (index 1) which were in turn divided by the measurement for the antibody VH0/Vk0 (index 2) (Tables 6 to 9). In addition, the measurements for the four indices were multiplied for comprehensive comparison of the four indices of the candidate antibodies. The final results (index 3) are listed in a descending order in Table 10.

[3] = biological target: T1, human c-Met (Sino Biological); assay: derived from the Biacore KD, normalised to VH0/Vk0
Procedure: as §1, §2

[4] = biological target: c-Met protein receptors on HUVEC (human, UniProt P08581 25-1390); assay: cell-based or functional assay
Sequence of c-Met protein receptors on HUVEC (P08581 25-1390): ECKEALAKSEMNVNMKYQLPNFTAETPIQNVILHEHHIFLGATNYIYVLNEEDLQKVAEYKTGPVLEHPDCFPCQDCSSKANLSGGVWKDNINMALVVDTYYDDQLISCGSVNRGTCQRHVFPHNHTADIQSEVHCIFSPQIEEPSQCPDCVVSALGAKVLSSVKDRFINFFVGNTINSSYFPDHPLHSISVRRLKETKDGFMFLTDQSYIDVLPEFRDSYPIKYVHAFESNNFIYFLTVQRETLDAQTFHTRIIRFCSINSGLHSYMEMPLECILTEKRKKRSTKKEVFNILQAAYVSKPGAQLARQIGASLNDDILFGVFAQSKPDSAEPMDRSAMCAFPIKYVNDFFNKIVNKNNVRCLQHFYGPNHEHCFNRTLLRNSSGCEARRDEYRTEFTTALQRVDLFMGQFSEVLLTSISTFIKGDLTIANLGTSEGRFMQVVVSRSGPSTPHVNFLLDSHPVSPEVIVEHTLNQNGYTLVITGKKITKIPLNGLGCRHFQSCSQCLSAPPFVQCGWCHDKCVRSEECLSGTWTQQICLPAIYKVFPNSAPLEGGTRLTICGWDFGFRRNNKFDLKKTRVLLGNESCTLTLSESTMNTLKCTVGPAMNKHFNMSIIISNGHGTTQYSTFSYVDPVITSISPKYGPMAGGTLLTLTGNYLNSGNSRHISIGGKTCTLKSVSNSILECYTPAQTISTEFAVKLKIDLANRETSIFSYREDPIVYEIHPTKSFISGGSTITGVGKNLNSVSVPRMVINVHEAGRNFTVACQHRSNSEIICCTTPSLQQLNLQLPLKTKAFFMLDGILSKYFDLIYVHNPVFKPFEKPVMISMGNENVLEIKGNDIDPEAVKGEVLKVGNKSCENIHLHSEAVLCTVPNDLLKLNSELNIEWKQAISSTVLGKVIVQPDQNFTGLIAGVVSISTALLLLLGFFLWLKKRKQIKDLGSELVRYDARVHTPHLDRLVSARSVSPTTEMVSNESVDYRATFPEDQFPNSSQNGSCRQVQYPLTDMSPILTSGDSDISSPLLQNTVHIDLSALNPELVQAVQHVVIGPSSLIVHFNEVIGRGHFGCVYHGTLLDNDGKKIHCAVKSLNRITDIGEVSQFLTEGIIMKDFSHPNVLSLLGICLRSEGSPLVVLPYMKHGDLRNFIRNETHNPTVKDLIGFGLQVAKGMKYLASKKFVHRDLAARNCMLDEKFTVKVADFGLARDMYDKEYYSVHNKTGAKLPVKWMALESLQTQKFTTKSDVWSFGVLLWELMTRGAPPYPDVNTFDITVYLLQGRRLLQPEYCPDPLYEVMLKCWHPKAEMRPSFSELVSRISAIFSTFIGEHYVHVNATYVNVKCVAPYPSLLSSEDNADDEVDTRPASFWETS

T1 sequence (P08581 25-932 limits assumed): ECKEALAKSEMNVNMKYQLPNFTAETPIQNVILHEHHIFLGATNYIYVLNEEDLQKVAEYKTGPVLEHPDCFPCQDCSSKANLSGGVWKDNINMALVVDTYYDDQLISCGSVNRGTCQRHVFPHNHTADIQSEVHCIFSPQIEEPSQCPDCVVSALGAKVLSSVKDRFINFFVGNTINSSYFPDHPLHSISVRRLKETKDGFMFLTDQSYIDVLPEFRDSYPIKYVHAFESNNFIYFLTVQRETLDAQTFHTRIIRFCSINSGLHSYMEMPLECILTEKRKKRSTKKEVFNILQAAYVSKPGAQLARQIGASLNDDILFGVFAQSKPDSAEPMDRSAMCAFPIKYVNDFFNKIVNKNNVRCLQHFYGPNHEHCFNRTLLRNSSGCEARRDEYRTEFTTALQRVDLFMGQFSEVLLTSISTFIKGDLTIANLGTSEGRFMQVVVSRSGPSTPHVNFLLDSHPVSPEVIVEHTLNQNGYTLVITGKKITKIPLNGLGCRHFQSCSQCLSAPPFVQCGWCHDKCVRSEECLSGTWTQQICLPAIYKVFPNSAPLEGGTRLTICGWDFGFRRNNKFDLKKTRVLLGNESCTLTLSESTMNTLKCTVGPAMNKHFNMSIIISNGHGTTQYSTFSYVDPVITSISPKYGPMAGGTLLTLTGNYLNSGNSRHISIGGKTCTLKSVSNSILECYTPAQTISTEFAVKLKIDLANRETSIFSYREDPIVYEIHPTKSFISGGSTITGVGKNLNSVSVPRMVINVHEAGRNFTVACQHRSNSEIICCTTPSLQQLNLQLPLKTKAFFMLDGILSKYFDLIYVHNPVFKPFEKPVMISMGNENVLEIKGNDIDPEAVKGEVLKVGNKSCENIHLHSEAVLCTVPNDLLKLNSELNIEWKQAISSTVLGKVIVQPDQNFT

Kd [1]: 502 pM | Relative KD to VMDO2 VH0/Vk0 [1]: 0.97 | Index 1 (binding affinity, inverse KD relative to the Average 3.52) [2]: 0.701 | Index 2 (binding affinity, inverse KD relative to VH0/Vk0) [3]: 1.04 | Index 1 (Relative Migration divided by the Average 157.5), HUVEC migration assay [4]: 1.12 | Index 2 (Relative Migration relative to VH0/Vk0), HUVEC migration assay [4]: 1.18 | Relative Migration (%), HUVEC migration assay, 90 ng/ml [4]: 176%
B1: VH2/Vk2 (antibody, IgG1, V domains shown)
VH: EVQLVQSGAEVKKPGESLKISCKGSGYSFPTHWITWVRQMPGKGLEWMGTIDPTDSYNFYGPSFQGQVTISADKSISTAYLQWSSLKASDTAMYYCARDGNYYDSRGYYYDTFDMWGQGTLVTVSS
VL: DIQMTQSPSSLSASVGDRVTITCRASQGISTYLAWYQQKPGKAPKLLIYSASTLESGVPSRFSGSGSGTDFTLTISSLQPEDFATYYCQQADSFPLTFGGGTKVEIK
notes: Full IgG1/kappa expressed in HEK 293 EBNA cells
